Data: the DeepSol protein solubility set

Assay: soluble on expression in E. coli; label from the status in PepcDB or PDB records
With “MNNSAEYFIKSLNMTAHPEGGYFKESFISPSKLAPNTLHINEERLLWTSIYFLLRTGEVSNFHRLKSDEMWYFHAGESLTIYMISPNGELIEKQLGLNIEKGETPQVLVPKDYIFGSAMNNEGFSLVGCMVAPGFDFKDFELFEREDLLEKYPKYKEVIEKLTRLEHHHHHH” the “soluble on expression in E. coli” value was “not soluble”. For “MNNYTIKDITRASGGFAMLAVDQREAMRLMFAAAGAKTPVADSVLTDFKVNAAKILSPYASAVLLDQQFCYRQAVEQNAVAKSCAMIVAADDFIPGNGIPVDNVVLDKKINAQAVKRDGAKALKLLVLWRSDEDAQQRLNMVKEFNELCHSNGLLSIIEPVVRPPRCGDKFDREQAIIDAAKELGDSGADLYKVEMPLYGKGARSDLLTASQRLNGHINMPWVILSSGVDEKLFPRAVRVAMEAGASGFLAGRAVWSSVIGLPDTELMLRDVSAPKLQRLGEIVDEMMAKRR”, the “soluble on expression in E. coli” value was “soluble”. In the case of “MNPLERKVKQEAEEDGYSSFDEFPAGAIRIPYEELMAKVRAKKAEAEAAQDLVNENSFDQFVAAPPAPPVQKPAVEPSPSCSPETVAVQKFVTEFMQAAGGSRELRIIKDSQETKIVWKTSPAKPKAPPVEDDPTDPTDSQVSTVSSIIPVSSPRGKRRIVVSSDKDSDGDETPTEDNVNNDDQDVTPKKNRKPPVEVVTPSPAKRLRGLNLRSAHSSSDSESDFQDTQCEDSQDSDYFPDTQEQRDRPADFRIPKNAAYDPLDLSYN”, the “soluble on expression in E. coli” value is reported as “not soluble”. With “MNPNHNEGLLELYTQAISLEALKDAEQFLENSLLGKDAQVERLLAQVLIEEQQIETNRKKIAQLRIEKEELEFDCANSDLKSLEQMQAERDELQRKCQPGQHTKSNHKSSEQLLRMKKETDALRAYMKKISQFED” the “soluble on expression in E. coli” value was “not soluble”. For “MNQEFFMLSQAMVEHLNEQINLEFFSSNLYLQMSAWCEDKGFDGAAEFLRAHAVEEMQHMQRLFTYVSETGALPILGAIAAPRHDFASLGEVFRETYQHEQKITQQINKLAHVAFTSQDYSTFNFLQWYVAEQHEEEKLFKGILDKLELVGEDGKALFFIDKDLAALAKKGSSSVMDAPAE”, the “soluble on expression in E. coli” value was “not soluble”. In the case of “MNQILNKLQHIKPIEIIIVADDRMSAIQSIPTFVECNVVVIEEKNKWKAPVHGAKVANGDVVLFLDGEDVIFSVELERFIEPLLKKEQDVILNNIDSVCFEKMRVEWPSIAMVYRKIVNDVLGRMDLKYDSMLSMPYAITKKAIKDIGYDILQNPILSQVTLIEKGWPLHSSSAITNTSLNNITSNNTSFYKNELTKLEVCEIKENVKALESWLQRKDDRGNYTDGGRKREVIEQLKKQKNYSLFHKGWGMNSSIYNGKQLSIIIPAQNEEATIKEVILEARKIEPKEIIVVINGSTDQTEAIAKQLGATVIVYEEALGHDVGRAIGAQEATGDILLFIDADFAIPAKDLHPLTKAVVDGVDIALNDLNLNLRFPLYIVNLYKYMLNIACNRKDLGVGSTIAVPHAISRKCLEGIGWDTLHTSCVAQVKAILEGYKVECVHFVDVMKPNRIRPQEHFATIGHPPAVLRITGDHLEGLSYLLKHRDFKDLF”, the “soluble on expression in E. coli” value is reported as “not soluble”. In the case of “MNQQTVNVIGAGLAGSEAAWQLAKRGIQVKLYEMRPVKQTPAHHTDKFAELVCSNSLRSNTLANAVGVLKEEMRALDSAIIAAADECSVPAGGALAVDRHEFAASVTNRVKNHPNVTVINEEVTEIPEGPTIIATGPLTSESLSAQLKELTGEDYLYFYDAAAPIVEKDSLDMDKVYLKSRYDKGEAAYLNCPMTEEEFDRFHEALTSAETVPLKEFEKEIFFEGCMPIEVMAKRGKKTMLFGPMKPVGLEHPVTGKRPYAVVQLRQDDAAGTLYNIVGFQTHLKWGDQKEVLKLIPGLENVEIVRYGVMHRNTFINSPSLLKPTYQFKNRSDLFFAGQMTGVEGYVESAASGLVAGINAAKLVLGEELVIFPQETAIGSMAHYITTTNQKNFQPMNANFGLLKELPVKIKNKKERNEQYANRAIETIQTISKTILEHHHHHH”, the “soluble on expression in E. coli” value is reported as “soluble”. For “MNQRILSTLGFDKVKQQLLQFIVTAQGTNEVSELLPIADENKIQSWLNETQDGLKVQRLRGGIPIPKLENIQPHMKRIEIGADLNGIELAQVGRVLSTTSELTRFFDELSENEVDLEHHHHHH”, the “soluble on expression in E. coli” value was “not soluble”. For “MNQTLETGTTTVGITLKDAVIMATERRVTMENFIMHKNGKKLFQIDTYTGMTIAGLVGDAQVLVRYMKAELELYRLQRRVNMPIEAVATLLSNMLNQVKYMPYMVQLLVGGIDTAPHVFSIDAAGGSVEDIYASTGSGSPFVYGVLESQYSEKMTVDEGVDLVIRAISAAKQRDSASGGMIDVAVITRKDGYVQLPTDQIESRIRKLGLILHHHHHH”, the “soluble on expression in E. coli” value was “soluble”. With “MNQVEMTEFPVGKPQEALYGVASTPDGALWFTLAKGNAIGRLSPDGAVSRFPLPHTDGQPTTITCGPDGRPWFTLSSANAIGRLAPDGALRMFELPRPASRPFGIAGGHDGCLWFAEMAGDRIGRITIDGDIEEYDLPVKGGYPSCMAAGRDGLMWFTLNQAGAVGSISATAAPRIFPLGAADAAPVGIASDAQGALWIAQAGNGAIVRFDAGGRITEFPLHSRAARPHAIAADAAGNLWFTEWGANRIGRISEAGDLAGYELAAPGSEPHGIAIDPHGCVWAALETGRLVRLQASPRDLEHHHHHH” the “soluble on expression in E. coli” value was “soluble”. In the case of “MNRARDWLEQARHNLRHAQGSLGLGDYAWACFAAQQAAEAALKGLHLARGQVAWGHSILDLLADLPEDVDVPEDLVEAAKVLDKYYIPTRYPDAHPAGPAARHYTRLEAEEALDLAQKILAFVEEKL”, the “soluble on expression in E. coli” value is reported as “soluble”. In the case of “MNRIGFIGAGNMGTAMIRGLAQANLVKREEIIVGGRNLEKLKPLEAEFTGLQITTDTEKLVEQADIIILAVKPYTIPEILTSVKEKLTPDKIIISVAAGVTIQDLEELTSAKTKIVRVMPNTPALVGEAMSSVSPNTNVTSEELKEVTAIFTSFGEAEVVSENLMDAVIGVSGSSPAYVYMFIEALADGAVLSGMPRDKAYKFAAQAVLGAAKTVLETGEHPGKLKDMVTSPGGTTIEAVKSLENDGFRSAVINAVQAAAKKNSSMLEHHHHHH”, the “soluble on expression in E. coli” value is reported as “soluble”. For “MNRKAFLACVLMCVILTGCETAKKISEVIKNPDIQVGSLKEQPSEITVTLLTEPDTNTNAEGESAAVDVQLVYLTDDSKLQAADYDQIASTPLPDVLGKNYIDHQDFNLLPDTIKTLPPIKLDEKTQFIGVVAYFSDDQATEWKQIETVEGTGHHYRLLVHVRQSSIEMKKEDE”, the “soluble on expression in E. coli” value was “soluble”. For “MNSASFLQSRLISRSFLVRRSLKRYSGLAKPYTFQQPTIYALSTPANQTSAIAIIRISGTHAKYIYNRLVDSSTVPPIRKAILRNIYSPSSCSVKPHDQKESKILLDTSLLLYFQAPYSFTGEDVLELHVHGGKAVVNSILKAIGSLHDRSSGKDIRFALPGDFSRRAFQNGKFDLTQLEGIKDLIDSETESQRRSALSSFNGDNKILFENWRETIIENMAQLTAIIDFADDNSQEIQNTDEIFHNVEKNIICLRDQIVTFMQKVEKSTILQNGIKLVLLGAPNVGKSSLVNSLTNDDISIVSDIPGTTRDSIDAMINVNGYKVIICDTAGIREKSSDKIEMLGIDRAKKKSVQSDLCLFIVDPTDLSKLLPEDILAHLSSKTFGNKRIIIVVNKSDLVSDDEMTKVLNKLQTRLGSKYPILSVSCKTKEGIESLISTLTSNFESLSQSSADASPVIVSKRVSEILKNDVLYGLEEFFKSKDFHNDIVLATENLRYASDGIAKITGQAIGIEEILDSVFSKFCIGK”, the “soluble on expression in E. coli” value was “not soluble”. For “MNSGDNIIKKKSFTFAVRIVNLYKVLSSEIKEFVMSKQLLRSGTSVGANIREALNAQSKPGFIHKLAISQKECDETGYTNNVEFESMNTDAIELLKIVRSIIMTSKKNIIHNSLEHHHHHH”, the “soluble on expression in E. coli” value was “not soluble”. In the case of “MNSHDGSNFSNKFSAHKDVVEDLLRKDTVGLVTFQDFRARREYLERCAVAEAACQNASRRAEELETKKKRVKRANLSRLSFGDSLEDQEENSVEFAKITRFASSKKANGVGFNTSGQDIVKEPDVFSPKEEGFFGKQNRKIGMDPGVDTSFLPDRDREQEERLERERLKQQWLSEQERVKNEEIDIIYSIWDGRGQRKLLSCKKGTTIAKFLSIVQQKVSTLKHCKVEDLMFIKEDMIIPHHLSFYDLISMKARGKNGSLFCFDVHEDIRIRNDASVEKDDSHAAKVVERRWYERNKHIYPASMWEVFDVSKNYGRVQKDFFGN”, the “soluble on expression in E. coli” value is reported as “soluble”.
